Experimental data taken from patent publication US7772001B2, “Directed differentiation of embryonic stem cells into an endoderm cell” (Yissum Research Development Company Of the Hebrew …, priority 2000, dated 2010).
Entries after “also recorded” stand apart in the source; their conditions may differ.

Tests used:
[1] = system: human differentiated embryonic (DE) cells; test: RT-PCR of cell specific genes in DE cells treated with growth factors; type: cell-based; conditions: for overall induction or repression of cell specific expression (FIG. 3B): at least three experiments
Experimental: (§1) Cell Culture: Human embryonic stem cells were grown on a feeder layer of mouse embryonic fibroblasts (MEF) and then transferred to gelatin coated plates and cultured further to reduce the number of murine cells in the culture. Differentiation into embryoid bodies (EBs) was initiated by transfer to Petri dishes, where the embryoid bodies remained in suspension. After 5 days, the EBs become dissociated and cells are cultured as a monolayer forming differentiated embryonic (DE) cells. This protocol allows for initial differentiation of the human embryonic stem cells as aggregates and further differentiation as a monolayer wherein cells can be exposed to exogenous growth factors. The DE cells were cultured for 10 days in the presence of 8 different growth factors: NGF, bFGF, Activin-A, TGFβ1, HGF, EGF, BMP4 and retinoic acid (RA) (FIG. 1A).
To induce formation of EBs, ES cells were transferred using trypsin/EDTA (0.1%/l mM) to plastic Petri dishes to allow their aggregation and prevent adherence to the plate. Human EBs were grown in the same culture medium, except that it lacked leukemia inhibitory factor (LIF) and bFGF. The EBs were cultured for 5 days and then dissociated and plated on tissue culture plates coated with 50 μg/ml Fibronectin (Boehringer Mannheim). The cells were grown in the presence of the following human recombinant growth factors used singly or in groups: Basic Fibroblast Growth Factor (bFGF) (Swoboda et al, 1999)—10 ng/ml (Gibco BRL); Transforming Growth Factor Beta 1 (TGFβ1) (Swoboda et al, 1999)—2 ng/ml (R&D Systems); Activin-A (Slager et al, 1993)—20 ng/ml (R&D Systems); Bone Morphogenic Protein 4 (BMP-4) (Slager et al, 1993; Bain et al, 1996)—10 ng/ml (R&D Systems); Hepatocyte Growth Factor (HGF)/Scatter Factor (Doetsch et al, 1999)—20 ng/ml (R&D Systems); Epidermal Growth Factor (EGF) (Doetsch et al, 1999)—100 ng/ml (R&D Systems); βNerve Growth Factor (NGF) (Johansson et al, 1999)—100 ng/ml (R&D Systems); Retinoic acid (RA) (Deacon et al, 1998; Peschanski et al, 1995)—1 μM (Sigma). Under these conditions the differentiated embryonic (DE) cells were grown for another 10 days. All of the examined growth factors are absent from the KnockOut™ serum replacement in which the embryonic cells were cultured.
RT-PCR Analysis: Total RNA was extracted using Atlas™ Pure Total RNA Kit (Clontech). cDNA was synthesized from 1 μg total RNA, using Atlas™ RT-for-PCR Kit (Clontech). cDNA samples were subjected to PCR amplification with DNA primers selective for the human genes. For each gene, the DNA primers were derived from different exons to ensure that the PCR product represents the specific mRNA species and not genomic DNA. PCR was performed using the Clontech Advantaq+™ RT-PCR kit and using a two-step cycle at 68° C.
Primers were synthesized for the following genes: neurofilament heavy chain (NF-H), phosphoprotein enriched in astrocytes (PEA-15), Keratin, Dopamine β Hydroxylase (DβH), Follicular Stimulating Hormone (FSH), Enolase, Myosin light polypeptide2 (myosin), Cartilage Matrix Protein (CMP), Renin, Kallikrein, Wilms Tumor 1 (WTI), β-Globin (β-Glob), δ-Globin (δ-Glob), Cardiac Actin (cACT), Albumin, α1 anti-trypsin (α1 AT), Lipase, Amylase, PDX-1, Insulin, Glucagon, Surfactant, Parathyroid Hormone (PTH), α-feto protein (αFP), Retinoic Acid Receptor type alpha (RAR), Hepatocyte Growth Factor Receptor (c-Met), Nerve Growth Factor Receptor (NGFR), Fibroblast Growth Factor Receptor type I (FGFRI), Transforming Growth Factor Receptor type II (TGFRII), Epidermal Growth Factor Receptor type (EGFR), Activin Receptor type IIB (ACTRIIB), Bone Morphogenic Protein 4 Receptor type II (BMP4RII), Octamer Binding Protein 4 (Oct 4), Glyceraldehyde 3-phosphate dehydrogenase (G3PD), β-Actin. Also incorporated by reference, see http://www.ls.huji.ac.il/˜nissimb/factors_es/primers.html-ente.
The differentiation induced by growth factors was further examined by determining the expression of a panel of 24 cell specific genes using RT-PCR. […]

[2] = system: human differentiated embryonic (DE) cells; test: Morphology of DE cells cultured with growth factors; type: cell-based; conditions: several days on plastic, continuous exposure to growth factor (FIG. 1B)
Experimental: as §1
To induce formation of EBs, ES cells were transferred using trypsin/EDTA (0.1%/l mM) to plastic Petri dishes to allow their aggregation and prevent adherence to the plate. Human EBs were grown in the same culture medium, except that it lacked leukemia inhibitory factor (LIF) and bFGF. The EBs were cultured for 5 days and then dissociated and plated on tissue culture plates coated with 50 μg/ml Fibronectin (Boehringer Mannheim). […]

[3] = vs control without growth factor (FIG. 4)

B1: BMP-4: human recombinant Bone Morphogenic Protein 4, 10 ng/ml (protein, UniProt P12644 293-408, looked up)
Bone morphogenetic protein 4: SPKHHSQRARKKNKNCRRHSLYVDFSDVGWNDWIVAPPGYQAFYCHGDCPFPLADHLNSTNHAIVQTLVNSVNSSIPKACCVPTELSAISMLYLDEYDKVVLKNYQEMVVEGCGCR
overall induction or repression of cell specific expression (FIG. 3B) [1]: mostly repress or fail to direct differentiation of as many cell types | blood formation [1, 3]: reduced | differentiation into chondrocytes [1, 3]: reduced | differentiation into ectodermal cells [1, 3]: allow or induce | differentiation into mesodermal cells [1, 3]: allow or induce; also recorded: inhibits differentiation of all other mesodermal cells examined | differentiation into skin cells [1, 3]: apparently permitting skin cells to form | cell morphology found in treated culture [2]: large round cells

B2: Activin-A: human recombinant Activin-A, 20 ng/ml (protein, UniProt P08476 311-426, looked up)
Inhibin beta A chain: GLECDGKVNICCKKQFFVSFKDIGWNDWIIAPSGYHANYCEGECPSHIAGTSGSSLSFHSTVINHYRMRGHSPFANLKSCCVPTKLRPMSMLYYDDGQNIIKKDIQNMIVEECGCS
overall induction or repression of cell specific expression (FIG. 3B) [1]: mostly repress or fail to direct differentiation of as many cell types | blood formation [1, 3]: inhibit | differentiation into Mullerian duct cells [1, 3]: inhibit | differentiation into chondrocytes [1, 3]: inhibit | differentiation into ectodermal cells [1, 3]: inhibit | differentiation into endodermal cells [1, 3]: inhibit | differentiation into kidney cells [1, 3]: inhibit | differentiation into mesodermal cells [1, 3]: allow differentiation into selected mesodermal cells | cell morphology found in treated culture [2]: muscle like syncytiums
